Reference: patent publication US20060216339

T1: BPDEtide, RKISASEFDRPLR (peptide B, type-I PKG peptide substrate)
T1 chain: RKISASEFDRPLR

T2: peptide C, QKRPRRKDTP (type-II PKG substrate)
T2 chain: QKRPRRKDTP

T3: peptide D, RKRSRAE (H2Btide, type-I PKG peptide substrate)
T3 chain: RKRSRAE

T4: peptide A, RKISASGP (type-I PKG peptide substrate)
T4 chain: RKISASGP

B1: recombinant bovine PKG type-Iα (protein)
chain: MSELEEDFAKILMLKEERIKELEKRLSEKEEEIQELKRKLHKCQSVLPVPSTHIGPRTTRAQGISAEPQTYRSFHDLRQAFRKFTKSERSKDLIKEAILDNDFMKNLELSQIQEIVDCMYPVEYGKDSCIIKEGDVGSLVYVMEDGKVEVTKEGVKLCTMGPGKVFGELAILYNCTRTATVKTLVNVKLWAIDRQCFQTIMMRTGLIKHTEYMEFLKSVPTFQSLPEEILSKLADVLEETHYENGEYIIRQGARGDTFFIISKGKVNVTREDSPNEDPVFLRTLGKGDWFGEKALQGEDVRTANVIAAEAVTCLVIDRDSFKHLIGGLDDVSNKAYEDAEAKAKYEAEAAFFANLKLSDFNIIDTLGVGGFGRVELVQLKSEESKTFAMKILKKRHIVDTRQQEHIRSEKQIMQGAHSDFIVRLYRTFKDSKYLYMLMEACLGGELWTILRDRGSFEDSTTRFYTACVVEAFAYLHSKGIIYRDLKPENLILDHRGYAKLVDFGFAKKIGFGKKTWTFCGTPEYVAPEIILNKGHDISADYWSLGILMYELLTGSPPFSGPDPMKTYNIILRGIDMIEFPKKIAKNAANLIKKLCRDNPSERLGNLKNGVKDIQKHKWFEGFNWEGLRKGTLTPPIIPSVASPTDTSNFDSFPEDNDEPPPDDNSGWDIDF
B2: recombinant His-apPKG (Aplysia protein kinase G with N-terminal His tag, expressed in baculovirus/Sf9 cells) (protein)
chain: MGNGASSNTHFTIDGESMDVHKVKALVPELRHELRRRDKIIEQYDSQVRQKDELLKEKEAEIARLKEEVHKLKSVLQLKVDTLKAQESKPDLLSTIDENQAEPTAPRGPAKKQGVSGESPSSKTLGYVDLTHHEKDFKSKQLIKDAILSNEFIKVLAATQLREIIDCMYEKRVPKACYIIKGGERGEHLYVCADGLLEVHKEDKRLGEIKSGGLFGELAILYNCKRTASVKAVTHTTLWVLDRRVFQAIMMKTGLQRREENMAFLKSVPLLKNLPSDKLAKMSDVLEYDFFHENEYIIREGAAGDTFFILNKGEVKVTQKIAGHAEPKEVRRLKRGDYFGEKALLSEDRRTANVIALPPGVECLTVDRESFTQFVGDLNELRNKDYGDEARGAERRSGSDSTVSPVSERPVAKEFENCSLDDLQLVTTLGMGGFGRVELVQLSKEKGKTFALKCLKKKHIVETRQQEHIYSEKKIMMEADSPFITKLHKTFRDRKYVYMLMEVCLGGELWTILRDRGNFDDLTARFCVACVLEAFSYLHAKGIIYRDLKPENLLLDARGYVKLVDFGFAKKIGVGKKTWTFCGTPEYVAPEIILNKGHDHSADYWSLGILMYELLNGTPPFSGSDPMRTYNIILKGIDHIEFPKKISRSAHVLIKKLCRDNPMERLGYGKNGISDIRKNKWFQGFDWDGLMDLTLTPPIVPKVKNPTDTSNFDSYPRDMDIAADELSGWDIDF

Key:
[1] = target: T1, BPDEtide, RKISASEFDRPLR (peptide B, …)
[2] = target: purified recombinant VASP-GST (vasodilator-stimulated phosphoprotein with C-terminal GST epitope tag), P70460
Sequence of purified recombinant VASP-GST (vasodilator-stimulated phosphoprotein with C-terminal GST epitope tag), P70460 (P70460 whole entry): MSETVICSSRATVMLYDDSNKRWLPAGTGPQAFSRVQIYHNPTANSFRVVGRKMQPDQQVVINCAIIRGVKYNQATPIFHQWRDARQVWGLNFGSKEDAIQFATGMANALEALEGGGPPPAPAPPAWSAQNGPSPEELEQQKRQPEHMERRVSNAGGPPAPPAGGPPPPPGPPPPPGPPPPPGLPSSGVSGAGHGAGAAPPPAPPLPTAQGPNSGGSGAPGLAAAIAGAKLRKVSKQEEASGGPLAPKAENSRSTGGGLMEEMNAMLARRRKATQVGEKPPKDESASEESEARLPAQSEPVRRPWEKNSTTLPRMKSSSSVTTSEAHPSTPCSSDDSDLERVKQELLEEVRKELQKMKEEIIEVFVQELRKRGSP

[3] = target: T2, peptide C, QKRPRRKDTP (type-II PKG …)
[4] = target: T3, peptide D, RKRSRAE (H2Btide, type-I PKG …)
[5] = target: T4, peptide A, RKISASGP (type-I PKG peptide …)
[6] = target: recombinant mammalian ERK2 (MAPK p42 protein, bacterial recombinant, already containing phospho-tyrosine-185)
Sequence of recombinant mammalian ERK2 (MAPK p42 protein, bacterial recombinant, already containing phospho-tyrosine-185) (P28482 2-360): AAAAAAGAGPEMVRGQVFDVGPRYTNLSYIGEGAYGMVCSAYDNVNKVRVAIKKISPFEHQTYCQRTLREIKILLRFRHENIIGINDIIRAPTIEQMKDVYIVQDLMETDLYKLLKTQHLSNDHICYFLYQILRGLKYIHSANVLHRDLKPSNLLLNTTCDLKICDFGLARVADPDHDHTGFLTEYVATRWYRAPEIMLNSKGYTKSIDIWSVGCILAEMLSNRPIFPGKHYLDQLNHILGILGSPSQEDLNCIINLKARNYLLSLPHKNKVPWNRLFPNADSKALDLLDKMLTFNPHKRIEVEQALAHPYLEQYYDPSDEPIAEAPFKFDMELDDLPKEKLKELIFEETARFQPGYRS

Protein | kinase activity on peptide substrates [1] | phosphorylation of VASP at serine 239 (Western blot with anti-phospho-VASP (Ser 239)) [2] | kinase activity on peptide substrates [3] | kinase activity on peptide substrates [4] | kinase activity on peptide substrates [5] | ERK2 activity (production of phospho-Elk1) compared with activation by MEK1 [6] | activation of ERK2 (phosphorylation of Elk1 by ERK2 after incubation with apPKG) [6] | phosphorylation of ERK2 at T183 (Western blot with antibody to ERKpT183) [6] | phosphorylation of ERK2 at Y185 (Western blot with antibody to ERKpY185) [6] | dual phosphorylation of ERK2 by apPKG in the presence of 1 µg of BPDEtide (Western blot with Ab^pTpYmapk) [1] | kinase activity (transfer of ^32P from [^32P]ATP to BPDEtide) [1]
B1 | both kinases readily phosphorylated several PKG peptide substrates | both the bovine and Aplysia kinases phosphorylated this site | neither kinase phosphorylated peptide C | both kinases readily phosphorylated several PKG peptide substrates | both kinases readily phosphorylated several PKG peptide substrates | – | – | – | – | – | –
B2 | both kinases readily phosphorylated several PKG peptide substrates | both the bovine and Aplysia kinases phosphorylated this site | neither kinase phosphorylated peptide C | both kinases readily phosphorylated several PKG peptide substrates | both kinases readily phosphorylated several PKG peptide substrates | apPKG produced an ERK2 with similar activity as that produced by MEK1 | apPKG activated ERK2 to phosphorylate Elk1 | there was an increase in the phosphorylation of the -T- in the presence of apPKG | There was no increase in phosphorylation of the -Y- when ERK2 was incubated with apPKG | The activation was specific, because it was reduced in the presence of BPDEtide | Inactive apPKG was activated by 100 nM 8-Br-cGMP and readily phosphorylated BPDEtide
